Assay results published in paper PMC10349104.
Several values for one entry are separate records, joined by “and”; a condition that tells them apart may be missing. Identical values can stand only once.

What was measured:
Assay in all cases: SPR
[1] = target: EVA-A(DN) (Amblyomma americanum)
[2] = target: EVA-A(L39P) (Amblyomma americanum)
[3] = target: EVA-A(21-102) (A. americanum)
[4] = target: EVA-A(Y44A) (Amblyomma americanum)
[5] = target: EVA-A(DC) (Amblyomma americanum)
[6] = target: EVA-A(Y44A) (A. americanum)
[7] = target: EVA-A(1-98) (A. americanum)
[8] = target: EVA-A(L39P) (A. americanum)
[9] = target: EVA-A(C8) (A. americanum)

Chain of CCL15 (Q16663 22-113): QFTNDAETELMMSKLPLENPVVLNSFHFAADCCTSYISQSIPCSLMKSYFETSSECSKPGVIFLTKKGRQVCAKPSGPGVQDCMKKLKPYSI
Chain of CCL14 (Q16627 20-93): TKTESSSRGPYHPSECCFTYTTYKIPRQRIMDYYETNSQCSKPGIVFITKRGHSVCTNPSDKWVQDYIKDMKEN
Chain of CCL7 (P80098 24-99): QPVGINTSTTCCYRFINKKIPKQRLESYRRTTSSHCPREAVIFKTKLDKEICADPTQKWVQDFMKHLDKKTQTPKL
Chain of CCL8 (P80075 24-99): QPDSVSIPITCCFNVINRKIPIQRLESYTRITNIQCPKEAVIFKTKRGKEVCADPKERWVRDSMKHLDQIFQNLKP
Chain of CCL23 (P55773 22-120): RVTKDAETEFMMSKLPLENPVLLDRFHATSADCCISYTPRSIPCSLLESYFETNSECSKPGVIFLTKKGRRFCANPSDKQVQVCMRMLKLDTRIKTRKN
Chain of CCL2 (P13500 24-99): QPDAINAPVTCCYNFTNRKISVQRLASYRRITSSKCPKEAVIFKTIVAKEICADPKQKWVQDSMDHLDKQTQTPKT
Chain of CCL27 (Q9Y4X3 25-112): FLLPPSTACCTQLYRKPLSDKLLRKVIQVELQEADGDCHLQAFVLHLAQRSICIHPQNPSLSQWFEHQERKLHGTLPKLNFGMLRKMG

Substance: CCL8 (from UniProt P80075 24-99) (ligand)
- Kd [1]: 328 nM and 146 nM and 34.1 nM
- Kd [2]: 2.73 nM and 2.16 nM and 2.89 nM
- koff [2]: 0.00242 s⁻¹ and 0.00205 s⁻¹ and 0.00312 s⁻¹
- kon [2]: 884000 M⁻¹ s⁻¹ and 949000 M⁻¹ s⁻¹ and 1.08e+06 M⁻¹ s⁻¹
- Kd [3]: 169 nM
- koff [3]: 0.0344 s⁻¹
- kon [3]: 112000 M⁻¹ s⁻¹
- Kd [4]: 4.46 nM and 3.95 nM and 2.44 nM
- koff [4]: 0.00137 s⁻¹ and 0.0015 s⁻¹ and 0.0018 s⁻¹
- kon [4]: 307000 M⁻¹ s⁻¹ and 378000 M⁻¹ s⁻¹ and 737000 M⁻¹ s⁻¹
- Kd [5]: 188 nM and 89.1 nM and 212 nM
- Kd [6]: 3.62 nM
- koff [6]: 0.00156 s⁻¹
- kon [6]: 474000 M⁻¹ s⁻¹
- Kd [7]: 163 nM
- koff [7]: 0.0344 s⁻¹
- kon [7]: 173000 M⁻¹ s⁻¹
- Kd [8]: 2.59 nM
- koff [8]: 0.00218 s⁻¹
- kon [8]: 971000 M⁻¹ s⁻¹

Substance: CCL7 (from UniProt P80098 24-99) (ligand)
- Kd [4]: 4.63 nM and 5.4 nM and 4.4 nM
- Kd [9]: 765 nM
- Kd [7]: 1010 nM

Substance: CCL14 (from UniProt Q16627 20-93) (ligand)
- Kd [3]: 0.11 nM
- koff [3]: 8e-05 s⁻¹
- kon [3]: 703000 M⁻¹ s⁻¹
- Kd [9]: 1.3 nM
- koff [9]: 0.00048 s⁻¹
- kon [9]: 386000 M⁻¹ s⁻¹
- Kd [6]: 0.11 nM
- koff [6]: 5e-05 s⁻¹
- kon [6]: 481000 M⁻¹ s⁻¹
- Kd [7]: < 0.1 nM
- koff [7]: < 0.0001 s⁻¹
- kon [7]: 239000 M⁻¹ s⁻¹
- Kd [8]: 0.04 nM
- koff [8]: 0.00013 s⁻¹
- kon [8]: 2.41e+06 M⁻¹ s⁻¹

Substance: CCL2 (from UniProt P13500 24-99) (ligand)
- Kd [2]: 25.6 nM and 20.7 nM and 28.4 nM
- koff [2]: 0.00858 s⁻¹ and 0.00729 s⁻¹ and 0.00847 s⁻¹
- kon [2]: 335000 M⁻¹ s⁻¹ and 353000 M⁻¹ s⁻¹ and 298000 M⁻¹ s⁻¹
- Kd [4]: 109 nM and 191 nM and 70 nM
- Kd [6]: 123 nM
- koff [6]: 0.032 s⁻¹
- kon [6]: 291000 M⁻¹ s⁻¹
- Kd [8]: 24.9 nM
- koff [8]: 0.036 s⁻¹
- kon [8]: 329000 M⁻¹ s⁻¹

Substance: CCL23 (from UniProt P55773 22-120) (ligand)
- Kd [3]: 0.51 nM
- koff [3]: 4e-05 s⁻¹
- kon [3]: 87000 M⁻¹ s⁻¹
- Kd [9]: 20.3 nM
- koff [9]: 0.00131 s⁻¹
- kon [9]: 74000 M⁻¹ s⁻¹
- Kd [6]: 18.8 nM
- koff [6]: 0.00176 s⁻¹
- kon [6]: 100000 M⁻¹ s⁻¹
- Kd [7]: 0.45 nM
- koff [7]: 2e-05 s⁻¹
- kon [7]: 144000 M⁻¹ s⁻¹
- Kd [8]: 1.14 nM
- koff [8]: 0.00067 s⁻¹
- kon [8]: 140000 M⁻¹ s⁻¹

Substance: CCL15 (ligand)
- Kd [5]: 30.9 nM and 32.9 nM and 31.2 nM
- koff [5]: 0.00162 s⁻¹ and 0.00173 s⁻¹ and 0.00167 s⁻¹
- kon [5]: 52500 M⁻¹ s⁻¹ and 52700 M⁻¹ s⁻¹ and 53700 M⁻¹ s⁻¹

Substance: CCL16(L19A) (from UniProt O15467 24-120) (ligand)
- Kd [2]: 1.54 nM and 1.52 nM (2×)
- koff [2]: 0.000757 s⁻¹ and 0.000893 s⁻¹ and 0.000913 s⁻¹
- kon [2]: 492000 M⁻¹ s⁻¹ and 588000 M⁻¹ s⁻¹ and 599000 M⁻¹ s⁻¹
- Kd [4]: 25.2 nM and 12.3 nM and 10.2 nM
- koff [4]: 0.00171 s⁻¹ and 0.00134 s⁻¹ and 0.00147 s⁻¹
- kon [4]: 68100 M⁻¹ s⁻¹ and 109000 M⁻¹ s⁻¹ and 144000 M⁻¹ s⁻¹
- Kd [6]: 15.9 nM
- koff [6]: 0.00151 s⁻¹
- kon [6]: 107000 M⁻¹ s⁻¹
- Kd [8]: 1.53 nM
- koff [8]: 0.00085 s⁻¹
- kon [8]: 560000 M⁻¹ s⁻¹

Substance: CCL11(F11A) (from UniProt P51671 24-97) (ligand)
- Kd [2]: 0.424 nM and 0.602 nM and 0.499 nM
- koff [2]: 0.000383 s⁻¹ and 0.000365 s⁻¹ and 0.000304 s⁻¹
- kon [2]: 904000 M⁻¹ s⁻¹ and 606000 M⁻¹ s⁻¹ and 610000 M⁻¹ s⁻¹
- Kd [4]: 2.64 nM and 2.95 nM and 2.91 nM
- koff [4]: 0.00233 1/s (2×) and 0.00213 1/s
- kon [4]: 884000 M⁻¹ s⁻¹ and 722000 M⁻¹ s⁻¹ and 801000 M⁻¹ s⁻¹
- Kd [6]: 2.83 nM
- koff [6]: 0.00226 s⁻¹
- kon [6]: 802000 M⁻¹ s⁻¹
- Kd [8]: 0.51 nM
- koff [8]: 0.00035 s⁻¹
- kon [8]: 707000 M⁻¹ s⁻¹

Substance: CCL27 (from UniProt Q9Y4X3 25-112) (ligand)
- Kd [2]: 48.2 nM and 78.8 nM and 64.7 nM
- koff [2]: 0.00218 s⁻¹ and 0.00268 s⁻¹ and 0.00356 s⁻¹
- kon [2]: 45300 M⁻¹ s⁻¹ and 34000 M⁻¹ s⁻¹ and 55000 M⁻¹ s⁻¹
- Kd [4]: 59.4 nM and 191 nM and 78.8 nM
- kon [4]: 51200 M⁻¹ s⁻¹ and 70200 M⁻¹ s⁻¹ and 34000 M⁻¹ s⁻¹
- Kd [5]: 36.9 nM and 53 nM and 35.3 nM
- koff [5]: 0.00409 s⁻¹ and 0.00367 s⁻¹ and 0.0037 s⁻¹
- kon [5]: 111000 M⁻¹ s⁻¹ and 69300 M⁻¹ s⁻¹ and 105000 M⁻¹ s⁻¹
- Kd [6]: 110 nM
- koff [6]: 0.00639 s⁻¹
- kon [6]: 52000 M⁻¹ s⁻¹
- Kd [7]: 41.7 nM
- koff [7]: 0.00409 s⁻¹
- kon [7]: 95000 M⁻¹ s⁻¹
- Kd [8]: 63.9 nM
- koff [8]: 0.00309 s⁻¹
- kon [8]: 45000 M⁻¹ s⁻¹

Substance: CCL14 (ligand)
- kon [5]: 206000 M⁻¹ s⁻¹ and 297000 M⁻¹ s⁻¹ and 214000 M⁻¹ s⁻¹

Substance: CCL15 (from UniProt Q16663 22-113) (ligand)
- Kd [3]: 34 nM
- koff [3]: 0.00214 s⁻¹
- kon [3]: 63000 M⁻¹ s⁻¹
- Kd [9]: 577 nM
- koff [9]: 0.0127 s⁻¹
- kon [9]: 22000 M⁻¹ s⁻¹
- Kd [6]: 161 nM
- koff [6]: 0.0117 s⁻¹
- kon [6]: 79000 M⁻¹ s⁻¹
- Kd [7]: 31.7 nM
- koff [7]: 0.00162 s⁻¹
- kon [7]: 53000 M⁻¹ s⁻¹
- Kd [8]: 26.6 nM
- koff [8]: 0.00467 s⁻¹
- kon [8]: 102000 M⁻¹ s⁻¹
